Results on 1 molecule are retold here after patent publication US10543284B2, “Anti-c-Met antibody and anti-c-Met antibody-cytotoxic drug conjugate and pharmaceutical use thereof” (Suzhou Suncadia Biopharmaceuticals Co., Ltd., priority 2015, dated 2020).

The subject of one assay is MKN45 cells. Nature of the assay: Inhibition of proliferation of MKN45 gastric cancer cells (CellTiter-Glo, 5 days). The format is cell-based, human. The text has this: The clones above were selected and further cultured to obtain monoclones. After verification of binding activity by ELISA, monoclones were selected for cultivation, and the resulting supernatant was subjected to a cell viability assay. According to the experiment principle, anti-human c-Met antibodies of the invention are able to inhibit phosphorylation of c-Met expressed on the surface of human gastric cancer cell line MKN45, thereby inhibiting the proliferation of MNK45 cells.
Human gastric cancer cells (MKN45, JCRB, JCRB0254, P11) were added to a 96-well cell culture plate (costar, #3799) at 1×10^5 cells/mL and 50 μl/well. The medium was RPMI1640 medium: (GIBCO, cat #11835)+10% FBS (GIBCO-10099141). Anti-human c-Met antibodies to be tested were added at 50 μl/well, and the plate was cultured for 5 days in incubator at 37′C (Manufacture: SANYO; Equipment No. TINC035). CellTiter-Glo® Luminescent Cell Viability Assay (Promega, G7573) was used, and the proliferation of cells was detected according to the instructions. The plate was read by a PerkinElmer plate reader, TREA001-RDA-IBA100. The following formula was used to calculate the percentage proliferation of cells: % proliferation of cells=(1−cell reads in experimental group/cell reads in untreated group)×100%.

Assay [1] has as its target T1, cell line MKN45, which overexpresses c-Met (Homo sapiens, UniProt P08581).
T1 construct: host or cells: MKN45
Nature of the assay: FACS binding activity with MKN45 cells. Conditions: Table 6. How it is done: A FACS method was used to detect the binding activity of c-Met humanized antibodies with the cell line MKN45, which overexpresses c-Met. […] The plate was incubated for 1 hour at 4° C. FACS buffer (PBS comprising 2.5% (v/v) FBS (Hyclone, Cat: SH30256.01B)) was added. The plate was centrifuged under 4° C. at 1300 rmp for 4 minutes, and the supernatant was discarded. This procedure was repeated three times. 100 μl of secondary antibodies (Fluorescence labeled goat-anti-mouse secondary antibodies with 1:200 dilution, Biolegend, Cat No. 405307; Fluorescence labeled anti-human secondary antibody with 1:30 dilution, Biolegend, Cat No. 409304) were added to each well, and the plate was incubated for 1 hour at 4° C. FACS buffer was added, the plate was centrifuged under 4° C. at 1300 rpm for 4 minutes, the supernatants were discarded; and this procedure was repeated three times. 200 μl FACS buffer was added to resuspend the cells, and the samples were prepared and detected by flow cytometry (BD FACS Array).

Another assay concerns Caki-1 cells. Nature of the assay: Agonist test: stimulation of Caki-1 cell proliferation. The format is cell-based, human. The following applies: highest concentration 20 μg/ml, 5 days. The method, then: Caki-1 cells express the hepatocyte growth factor receptor c-Met, and HGF can bind c-Met to stimulate Caki-1 cell proliferation. Therefore, agonist activity of anti c-Met antibodies could be evaluated by the proliferation of Caki-1 cells stimulated by the humanized anti c-Met antibodies of the invention compared with the proliferation of Caki-1 cells stimulated by HGF.
Caki-1 cells (Shanghai Branch of Chinese Academy of Science, TCHu135, P12) were added to a 96-well culture plate (costar, #3799) at 1000/well. The medium was McCoy's 5A (invitrogen, #16600)+10% FBS (GIBCO-10099141), and the condition was at 37° C. for 24 hours. Afterwards, cells were starved for 24 hours (The medium for cell starvation is McCoy's 5A and 0.5% FBS).

The subject of assay [2] is human gastric cancer MKN45 cell model. Nature of the assay: MKN45 subcutaneous xenograft in BALB/c nude mice (Example 10). The format is in vivo. The following applies: 5 mg/kg antibody, terminated at day 25. The method, then: The human gastric cancer MKN45 cell model, obtained by subcutaneous xenograft into BALB/c nude mice, was used to evaluate the antitumor activity of the antibodies.
MKN45 cells were cultured in a monolayer in RPMI-1640 medium (10%/FBS) at 37° C. in 5% CO2. The cells were counted and collected during the logarithmic phase. The cells were resuspended in PBS to an appropriate concentration, and 0.1 ml 3×10^6 cells were subcutaneously injected into the right wing of mice (BALB/c nude mouse, female, 10-week old, 22-28 g, from Shanghai SLAC experimental animal ltd. Licence No. 2007000548777; Environment: SPF grade). When the tumors' average volume reached 114 mm^3, the tumors' weights and volumes were measured, and mice were then separated into groups for treatment. The control group was treated with PBS, and the antibody therapy group was treated with 5 mg/kg antibody of the invention, and the frequency was once a week and twice per time. The tumors' volumes and weights were measured twice a week, and the experiment was terminated at day 25. The formula for calculating tumor size was: tumor volume (mm^3)=0.5×(tumor length×tumor diameter^2).

Assay [3] deals with MKN45 cells expressing c-Met. In words: Endocytosis of anti c-Met antibody in MKN45 cells (FACS). The following applies: 10 μg/ml. The format is cell-based, human. The method, then:
Antibodies of the invention could bind to human c-Met, have very good in vitro activity, and inhibit tumor activity in vivo. […] In order to detect whether the antibody could be taken up into the cell along with human c-Met once bound to human c-Met, the human gastric cancer cell line MKN45 (JCRB, Cat No.: JCRB0254) expressing c-Met was used for evaluation. […] The plate was incubated at 4° C. for 1 hour. FACS buffer (phosphate buffer solution including 2.5% fetal bovine serum; Hyclone, Cat: SH30256.01B) was added, and the plate was centrifuged at 4° C., 1300 rpm for 4 minutes. The supernatant was discarded, and this procedure was repeated three times. 100 μl secondary antibody solution (Fluorescence labeled goat anti mouse secondary antibodies at 1:200 dilution, Biolegend, Cat No. 405307; Fluorescence labeled anti-human secondary antibody at 1:30 dilution, Biolegend, Cat No. 409304) was added into each well, and the plate was incubated at 4° C. for 1 hour. FACS buffer was added and the plate was centrifuged at 4° C., 1300 rpm for 4 minutes. The supernatant was discarded, and this procedure was repeated three times. […] FACS buffer was added and the plate was centrifuged at 4° C., 1300 rpm for 4 minutes. The supernatant was discarded, and this procedure was repeated three times. 200 μl Stripping buffer (0.05 M glycine, pH 3.0; 0.1 M NaCl, mixed in accordance with 1:1 (v/v)) was added to each well. The cells were resuspended and were incubated for 7 minutes at room temperature. The cells were centrifuged at room temperature at 1300 rpm for 4 minutes, and the supernatant was discarded. 200 μl neutralizing wash buffer (0.15M trihydroxymethyl aminomethane, pH 7.4) was added to each well, the cells were resuspended and centrifuged at room temperature at 1300 rpm for 4 minutes, and the supernatant was discarded. 200 μl FACS buffer was added, and the cells were resuspended. Samples were prepared and detected by flow cytometry (BD FACS Calibur). Endocytosis of c-Met antibody %=(intensity of fluorescence at various time points−average intensity of fluorescence at time 0)/average intensity of fluorescence at time 0.

T1 sequence (P08581 25-1390): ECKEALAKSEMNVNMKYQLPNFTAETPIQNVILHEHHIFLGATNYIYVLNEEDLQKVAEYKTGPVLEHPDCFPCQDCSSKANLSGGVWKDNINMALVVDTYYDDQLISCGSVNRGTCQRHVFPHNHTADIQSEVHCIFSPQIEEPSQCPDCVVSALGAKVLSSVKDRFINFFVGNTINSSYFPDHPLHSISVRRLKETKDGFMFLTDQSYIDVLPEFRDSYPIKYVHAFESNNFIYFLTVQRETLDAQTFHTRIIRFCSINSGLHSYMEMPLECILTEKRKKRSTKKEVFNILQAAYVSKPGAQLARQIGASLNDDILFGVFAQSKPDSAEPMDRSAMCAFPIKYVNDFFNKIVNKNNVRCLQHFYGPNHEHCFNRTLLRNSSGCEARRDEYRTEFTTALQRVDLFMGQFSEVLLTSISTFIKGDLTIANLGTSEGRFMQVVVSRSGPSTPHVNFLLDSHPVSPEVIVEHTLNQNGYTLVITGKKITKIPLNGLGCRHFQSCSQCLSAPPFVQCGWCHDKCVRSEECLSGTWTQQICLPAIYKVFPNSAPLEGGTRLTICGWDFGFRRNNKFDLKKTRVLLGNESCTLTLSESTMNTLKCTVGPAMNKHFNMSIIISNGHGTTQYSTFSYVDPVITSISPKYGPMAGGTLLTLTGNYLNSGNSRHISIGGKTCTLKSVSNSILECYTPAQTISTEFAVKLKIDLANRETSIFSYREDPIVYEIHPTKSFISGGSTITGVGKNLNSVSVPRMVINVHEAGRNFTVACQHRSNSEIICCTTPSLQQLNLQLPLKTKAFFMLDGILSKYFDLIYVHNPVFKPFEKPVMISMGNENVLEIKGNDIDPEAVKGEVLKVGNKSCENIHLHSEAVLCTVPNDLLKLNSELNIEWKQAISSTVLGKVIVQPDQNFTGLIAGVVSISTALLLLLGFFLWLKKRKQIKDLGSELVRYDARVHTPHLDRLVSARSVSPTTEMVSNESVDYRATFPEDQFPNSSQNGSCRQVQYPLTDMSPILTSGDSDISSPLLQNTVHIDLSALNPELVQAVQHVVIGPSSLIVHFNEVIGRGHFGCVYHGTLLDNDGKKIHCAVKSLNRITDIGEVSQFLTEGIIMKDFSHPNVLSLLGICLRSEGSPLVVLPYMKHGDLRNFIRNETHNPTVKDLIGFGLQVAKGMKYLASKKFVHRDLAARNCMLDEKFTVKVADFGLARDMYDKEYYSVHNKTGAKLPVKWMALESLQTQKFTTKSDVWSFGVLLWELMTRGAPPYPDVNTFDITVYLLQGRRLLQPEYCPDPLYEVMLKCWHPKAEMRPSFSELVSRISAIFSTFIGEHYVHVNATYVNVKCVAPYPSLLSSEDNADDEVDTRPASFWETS

B1: Ab-9: humanized anti c-Met antibody: heavy chain sequence of SEQ ID NO: 23 and light chain sequence of SEQ ID NO: 26 (antibody)
heavy: QVTLKESGPVLVKPTETLTLTCTVSGFSLPNYGVHWVRQPPGKALEWLAVIWSGGSTNYAAAFVSRLRISKDTSKSQVVFTMNNMDPVDTATYYCARNHDNPYNYAMDYWGQGTTVTVSSASTKGPSVFPLAPCSRSTSESTAALGCLVKDYFPEPVTVSWNSGALTSGVHTFPAVLQSSGLYSLSSVVTVPSSNFGTQTYTCNVDHKPSNTKVDKTVERKCCVECPPCPAPPVAGPSVFLFPPKPKDTLMISRTPEVTCVVVDVSHEDPEVQFNWYVDGVEVHNAKTKPREEQFNSTFRVVSVLTVVHQDWLNGKEYKCKVSNKGLPAPIEKTISKTKGQPREPQVYTLPPSREEMTKNQVSLTCLVKGFYPSDIAVEWESNGQPENNYKTTPPMLDSDGSFFLYSKLTVDKSRWQQGNVFSCSVMHEALHNHYTQKSLSLSPGK
light: DIVLTQSPASLAVSPGQRATITCRANKSVSTSTYNYLHWYQQKPGQPPKLLIYLASNLASGVPARFSGSGSGTDFTLTINPVEANDTANYYCQHSRDLPPTFGQGTKLEIKRTVAAPSVFIFPPSDEQLKSGTASVVCLLNNFYPREAKVQWKVDNALQSGNSQESVTEQDSKDSTYSLSSTLTLSKADYEKHKVYACEVTHQGLSSPVTKSFNRGEC
modifications: Ab-9 heavy chain; Ab-9 light chain
For B1, the “Activity of inhibition of MKN45 cell proliferation Maximum inhibition rate (%)” value in the assay on MKN45 cells is on record as 33%. For the same molecule, in assay [1], the response was half-maximal at 1.6 nM (EC50). The “Stimulation of proliferation of Caki-1” value in the assay on Caki-1 cells is reported as “none”. Further, in assay [2], the inhibition rate is on record as 56%. Besides, the “endocytosis % 0 h” value in assay [3] (0 h) is 0%. In addition, the “endocytosis % 0.5 h” value in assay [3] (0.5 h) stood at 26%. In addition, in assay [3] (1 h), the “endocytosis % 1 h” value is given as 32%. The “endocytosis % 2 h” value in assay [3] (2 h) came out at 32%. The “endocytosis % 4 h” value in assay [3] (4 h) turned out to be 31%.
